Values of other authors, collected in article PMC11574045, “A cofactor-induced repressive type of transcription factor condensation can be induced by synthetic peptides to suppress tumorigenesis” (The EMBO Journal, 2024).

Target: VGLL4 (Homo sapiens) (UniProt Q14135)
Conditions: cited from earlier work

VGLL4 (Homo sapiens), sequence (Q14135 whole entry): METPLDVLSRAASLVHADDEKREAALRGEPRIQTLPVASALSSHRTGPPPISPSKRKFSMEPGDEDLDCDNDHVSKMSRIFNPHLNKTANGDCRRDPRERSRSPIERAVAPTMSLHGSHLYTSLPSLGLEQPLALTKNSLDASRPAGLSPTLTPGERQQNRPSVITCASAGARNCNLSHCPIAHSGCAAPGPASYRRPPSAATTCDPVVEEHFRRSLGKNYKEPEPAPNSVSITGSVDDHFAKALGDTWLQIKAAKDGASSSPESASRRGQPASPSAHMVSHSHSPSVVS
TEAD4, sequence (Q15561 whole entry): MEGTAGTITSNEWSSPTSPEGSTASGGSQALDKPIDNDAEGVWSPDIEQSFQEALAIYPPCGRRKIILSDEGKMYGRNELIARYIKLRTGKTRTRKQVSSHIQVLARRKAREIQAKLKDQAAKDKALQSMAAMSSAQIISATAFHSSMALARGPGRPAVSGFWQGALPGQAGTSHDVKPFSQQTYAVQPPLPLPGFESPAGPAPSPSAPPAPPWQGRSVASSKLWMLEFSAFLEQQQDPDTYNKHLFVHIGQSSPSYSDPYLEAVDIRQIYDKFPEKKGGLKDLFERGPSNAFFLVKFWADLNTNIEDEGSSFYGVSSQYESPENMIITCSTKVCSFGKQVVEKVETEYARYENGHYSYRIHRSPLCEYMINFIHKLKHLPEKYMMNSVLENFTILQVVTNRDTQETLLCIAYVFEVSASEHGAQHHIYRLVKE

TEAD4 (from UniProt Q15561)
Kd: 6.8 nM
